Laboratory results from paper PMC5286394, “Architecture of the yeast Elongator complex” (EMBO Reports, 2016).

T1: untagged full-length Elp1 (S. cerevisiae, UniProt Q06706 1-1349)
T1 construct: Elp1, Elongator subunit 1, S. cerevisiae; source: E. coli BL21 pSarRare, purified (NiNTA, TEV cleavage, second NiNTA, gel filtration); not shown: His6, N-terminal, cleaved; GST, N-terminal, cleaved
T1 sequence (looked up): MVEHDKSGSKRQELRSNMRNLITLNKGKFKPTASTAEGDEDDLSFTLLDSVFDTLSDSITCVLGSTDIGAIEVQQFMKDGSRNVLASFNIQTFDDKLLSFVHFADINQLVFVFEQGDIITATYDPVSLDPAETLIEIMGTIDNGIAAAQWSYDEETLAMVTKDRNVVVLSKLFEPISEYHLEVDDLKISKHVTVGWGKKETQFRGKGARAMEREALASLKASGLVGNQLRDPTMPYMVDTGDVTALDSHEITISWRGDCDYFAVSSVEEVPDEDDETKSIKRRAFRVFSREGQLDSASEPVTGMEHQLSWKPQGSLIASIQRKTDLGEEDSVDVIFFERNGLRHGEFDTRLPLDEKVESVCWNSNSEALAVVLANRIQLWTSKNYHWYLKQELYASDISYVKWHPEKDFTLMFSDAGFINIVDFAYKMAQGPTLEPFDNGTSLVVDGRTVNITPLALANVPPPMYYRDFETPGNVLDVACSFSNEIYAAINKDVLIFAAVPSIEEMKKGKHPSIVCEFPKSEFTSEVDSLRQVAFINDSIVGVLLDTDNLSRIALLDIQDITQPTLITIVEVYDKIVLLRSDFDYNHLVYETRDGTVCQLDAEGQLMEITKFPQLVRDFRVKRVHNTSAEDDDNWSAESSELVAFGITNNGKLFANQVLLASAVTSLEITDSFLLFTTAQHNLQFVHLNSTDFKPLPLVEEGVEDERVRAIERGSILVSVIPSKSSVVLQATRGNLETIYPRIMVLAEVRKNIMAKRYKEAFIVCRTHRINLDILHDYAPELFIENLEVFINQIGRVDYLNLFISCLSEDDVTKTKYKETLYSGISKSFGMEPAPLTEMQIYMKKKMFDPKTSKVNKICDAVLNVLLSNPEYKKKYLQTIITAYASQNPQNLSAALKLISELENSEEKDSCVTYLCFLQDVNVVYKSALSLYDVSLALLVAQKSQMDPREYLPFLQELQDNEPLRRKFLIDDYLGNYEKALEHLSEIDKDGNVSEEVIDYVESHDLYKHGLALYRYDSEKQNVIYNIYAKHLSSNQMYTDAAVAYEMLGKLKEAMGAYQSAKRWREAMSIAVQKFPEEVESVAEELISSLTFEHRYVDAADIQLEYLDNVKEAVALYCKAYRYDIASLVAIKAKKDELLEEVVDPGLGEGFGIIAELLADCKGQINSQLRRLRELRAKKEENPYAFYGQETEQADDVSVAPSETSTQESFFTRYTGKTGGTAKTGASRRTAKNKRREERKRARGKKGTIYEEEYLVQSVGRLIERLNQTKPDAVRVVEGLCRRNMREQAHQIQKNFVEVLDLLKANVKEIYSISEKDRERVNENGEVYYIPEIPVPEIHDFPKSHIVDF

B1: hetero-hexameric Elp456 ring within the endogenous holoElongator (Elp6-TAP purification) (complex)
chain 1: MSFRKRGEILNDRGSGLRGPLLRGPPRTSSTPLRTGNRRAPGNVPLSDTTARLKKLNIADESKTKMGLDSSHVGVRPSPATSQPTTSTGSADLDSILGHMGLPLGNSVLVEEQSTTEFHSILGKLFAAQGIVHNRISDSSADKTRNGDTHVIVLSLNQMFAKELPGIYKGSRKQMKKNLISEEESKVTVQNLNETQRSTPSRYKDLKIAWKYKLADEKRLGSPDRDDIQQNSEYKDYNHQFDITTRLMPAPIASELTFIAPTQPVSTILSQIEQTIKRNDKKLIRIVIPSLLHPAMYPPKMFESSEIIGLMHGVRSLVKKYYERVVLFASISIDIITPPLLVLLRNMFDSVINLEPFNQEMTEFLERVYKSQPGKIQHGLVHILKLPVFTDRGEMRVLKSEWAFKNGRKKFEIEQWGIPVDDAEGSAASEQSHSHSHSDEISHNIPAKKTKISLDY
chain 2: MASSSHNPVILLKRILSLTESSPFILCLDSIAQTSYKLIQEFVHQSKSKGNEYPIVYISFETVNKPSYCTQFIDATQMDFVHLVKQIISYLPAATATQAKKHMVIIDSLNYISTEYITRFLSEIASPHCTMVATYHKDIKDENRTVIPDWNNNYPDKLTLLQFMATTIVDIDVVLTGTLDTEEVSELLNEFRIPRGLNNDIFQLRLVNKRKSGRSLEYDFIVNSNTHEYELLSTTKQEEESSSNGLETPEMLQGLTTFNLGTSNKQKLAKDQVALPFLEAQSFGQGGAIVYEYEKDDDYDEEDPYEDPF
chain 3: MGSVQRQDLVLFSDQSVLPAHFFQDSNSHNLFFITHQSCTQPLWMINALVETHVLGSPSSLNESSSSMLPSSTRSHAVLASFIHEQNYFTNSLNKLKIPSNNYNVLDFLSDFIVNNIHNKPRDKILSDVLAKFSAAIQNNPTDTIVIIEQPELLLSLVSGLTCSELNNKFITPLLRQCKVLIIVSNSDIFNIDEYDASVHSSNLQNFYKSSFIKSMINLNLNPLKTGFAKDVTGSLHVCRGGAPIATSNTSLHVVENEYLYLNEKESTKLFYR
notes: Elp4, S. cerevisiae, endogenous protein; Elp5, S. cerevisiae, endogenous protein; Elp6, S. cerevisiae, endogenous protein with TAP tag; Only part of the TAP tag is left after TEV elution; copies: 2 + 2 + 2
B2: GST-tagged Elp3 KAT domain (aa348–557) (domain or fragment, S. cerevisiae, UniProt Q02908 348-557, looked up)
chain: SYSANALVDLVARILALVPPWTRIYRVQRDIPMPLVTSGVDNGNLRELALARMKDLGTTCRDVRTREVGIQEVHHKVQPDQVELIRRDYYANGGWETFLSYEDPKKDILIGLLRLRKASKKYTYRKEFTSQRTSIVRELHVYGSVVPLHSRDPRKFQHQGFGTLLMEEAERIAKEEHGSEKISVISGVGVRNYYGKLGYELDGPYMSKRI
notes: Elp3, S. cerevisiae, lysine acetyl transferase (KAT) domain, residues 348–557; also called KAT domain of Elp3; source: E. coli BL21 pSarRare, purified (NiNTA, gel filtration); not shown: His6, N-terminal, kept; GST, N-terminal, kept

Legend:
[1] = molecular target: T2, Elp123 sub-complex within the endogenous holoElongator (Elp6-TAP purification) (S. cerevisiae (endogenous in strain …, UniProt Q06706 1-1349; P42935 1-788; Q02908 1-557); assay: negative-stain EM reconstruction with integrative modelling (EM map and cross-links); holoElongator from Elp6-TAP purification, 0.01% glutaraldehyde, gel filtration; 1% uranyl acetate; 31 Å; conditions: both partners purified
T2 construct: Elp1, S. cerevisiae, endogenous protein; Elp2, S. cerevisiae, endogenous protein; Elp3, S. cerevisiae, endogenous protein; copies: 2 + 2 + 2
T2 sequence (P42935 whole entry, one chain of several): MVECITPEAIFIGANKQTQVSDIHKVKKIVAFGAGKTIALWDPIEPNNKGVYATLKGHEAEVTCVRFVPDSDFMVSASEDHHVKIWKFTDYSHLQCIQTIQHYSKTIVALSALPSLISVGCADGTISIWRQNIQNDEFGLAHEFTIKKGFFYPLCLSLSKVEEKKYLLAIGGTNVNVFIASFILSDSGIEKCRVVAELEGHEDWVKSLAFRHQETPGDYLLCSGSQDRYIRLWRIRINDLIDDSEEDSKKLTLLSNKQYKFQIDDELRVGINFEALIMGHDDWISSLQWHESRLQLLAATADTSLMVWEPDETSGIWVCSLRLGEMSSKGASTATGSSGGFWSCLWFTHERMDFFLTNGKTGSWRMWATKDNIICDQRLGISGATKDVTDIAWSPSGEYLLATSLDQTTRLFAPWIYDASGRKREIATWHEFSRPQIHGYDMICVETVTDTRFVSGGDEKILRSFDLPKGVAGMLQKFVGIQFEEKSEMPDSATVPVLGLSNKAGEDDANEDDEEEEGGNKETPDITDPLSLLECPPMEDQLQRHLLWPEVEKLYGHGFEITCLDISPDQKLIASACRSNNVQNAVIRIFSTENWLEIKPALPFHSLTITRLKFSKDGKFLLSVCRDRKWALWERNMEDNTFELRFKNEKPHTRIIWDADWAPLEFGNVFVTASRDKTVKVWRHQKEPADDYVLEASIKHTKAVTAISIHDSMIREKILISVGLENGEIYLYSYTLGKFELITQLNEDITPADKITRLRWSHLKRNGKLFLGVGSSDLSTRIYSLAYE

[2] = molecular target: T1, untagged full-length Elp1; assay: pull-down; GST pull-down: 20 μg GST-tagged protein and increasing amounts of untagged partner with glutathione Sepharose, 2 h at 4°C, 20 mM Tris pH 7.5, 150 mM NaCl, 5 mM DTT, 0.1% Tween-20; five washes; SDS–PAGE, Coomassie; conditions: both partners purified

Binder	stoichiometry N [1]	binding result [2]
B1	1	–
B2	–	binds
